{"source": "paper PMC11381232", "about": "“Efficient expression and purification of rat CRP in Pichia pastoris” (Frontiers in Immunology, 2024)", "key": {"[1]": {"target": "the molecule itself", "experiment": "negative-stain electron microscopy; CRP diluted to 0.15-0.3 mg/mL in 20 mM Tris pH 6.8, 150 mM NaCl, 2 mM CaCl2, 1-2 h at 18°C, 1% uranyl acetate; self-association, pentamer"}, "[2]": {"target": "the molecule itself", "experiment": "SDS-PAGE and Western blot, non-reduced against reduced; yeast-secreted rCRP-6×His without or with 20 mM DTT, anti-His detection; disulfide-linked dimer of subunits"}}, "data": [{"protein": "rat C-reactive protein purified from rat serum (natural protein, UniProt P48199 20-230, looked up, C-reactive protein, rat, endogenous protein from serum; Homopentamer by negative-stain EM and SEC; also called rCRP; rat CRP; source: purified from serum of turpentine-injected Wistar rats (p-Aminophenyl Phosphoryl Choline Agarose, DEAE, SEC)) HEDMSKQAFVFPGVSATAYVSLEAESKKPLEAFTVCLYAHADVSRSFSIFSYATKTSFNEILLFWTRGQGFSIAVGGPEILFSASEIPEVPTHICATWESATGIVELWLDGKPRVRKSLQKGYIVGTNASIILGQEQDSYGGGFDANQSLVGDIGDVNMWDFVLSPEQINAVYVGRVFSPNVLNWRALKYETHGDVFIKPQLWPLTDCCES", "values": [{"measurement": "stoichiometry N", "setting": "[1]", "result": 5}]}, {"protein": "recombinant rat CRP with N-terminal Strep-tag II, secreted from E. coli BL21 (DE3) (natural protein, UniProt P48199 20-230, looked up, C-reactive protein, rat, wild type, cDNA by NM_017096.3; so no native signal peptide; A bacterial signal peptide stood before the tag for secretion (text: alkaline phosphatase, ALP); also called rCRP; rCRPwt-pET42c) HEDMSKQAFVFPGVSATAYVSLEAESKKPLEAFTVCLYAHADVSRSFSIFSYATKTSFNEILLFWTRGQGFSIAVGGPEILFSASEIPEVPTHICATWESATGIVELWLDGKPRVRKSLQKGYIVGTNASIILGQEQDSYGGGFDANQSLVGDIGDVNMWDFVLSPEQINAVYVGRVFSPNVLNWRALKYETHGDVFIKPQLWPLTDCCES", "values": [{"measurement": "stoichiometry N", "setting": "[1]", "result": 5}]}, {"protein": "recombinant rat CRP with C-terminal 6×His tag, secreted from Pichia pastoris GS115 (natural protein, UniProt P48199 20-230, looked up, C-reactive protein, rat, wild type; the reverse primer ends at ...DCCES followed by GA and six histidines; Secreted by the S. cerevisiae alpha-factor signal of pPIC9K; By the reverse primer a Gly-Ala stands between CRP and the His6 tag; also called rCRP; rCRP-6×His fusion protein; source: P. pastoris GS115, secreted into the culture medium, purified (Ni2+-NTA, p-Aminophenyl Phosphoryl Choline …)) HEDMSKQAFVFPGVSATAYVSLEAESKKPLEAFTVCLYAHADVSRSFSIFSYATKTSFNEILLFWTRGQGFSIAVGGPEILFSASEIPEVPTHICATWESATGIVELWLDGKPRVRKSLQKGYIVGTNASIILGQEQDSYGGGFDANQSLVGDIGDVNMWDFVLSPEQINAVYVGRVFSPNVLNWRALKYETHGDVFIKPQLWPLTDCCES", "values": [{"measurement": "stoichiometry N", "setting": "[2]", "result": 2}, {"measurement": "stoichiometry N", "setting": "[1]", "result": 5}]}]}
